Assay: soluble on expression in E. coli; label from the status in PepcDB or PDB records

Sequence | soluble on expression in E. coli
MPGELLGAHYGHCFGCGEEQSHGLHLAARAGQGVSITAEFTVQPAHQGAPGLAHGGVLATALDETLGSLNWLLRTIAVTGRLETDFVRPVPVGTVLYLEAEVTAVAGRKIYSTATGRIGGPEGPVAVRADALFVEVKVDHFTDNGRQEEIRAAMNDPDQLRRARAFEVNPLEHHHHHH | not soluble
MSLAWAPKNYIEKVVAIYDYTKDKDDELSFKEGAIIYVIKKNDDGWFEGVCNRVTGLFPGNYVESIMHYTDEGHHHHHH | soluble
AIAYTFDTTDHKSPCCNFQWYIFRKQGESRIITCELFGVIVSLENRWDWLEFMIDDSLQLTAFRCPKRDKLGMETLLQLGDVAQVTGNWKLSNGAFLNATKIAIHNNPDVECKYWLQQIQKYKSKVCELEIPSDWIRRQQRAHNLKTDAVLSFSAQVSTAAATCWKLWKKHFNQGGKISLQRLWEVIQRENCPKMQELSSCRRNQIVQLLIHLGYLIPLSKEPETYVLLIDDILDKQVMQIFNQNIASKTLSLREVAYRLEEYFHVEEISLERVEESILRLAYKEKVEQV | soluble
GPGYNEPMAASDEVNLIESRTVVPLNTWVLISNFKVAYNILRRPDGTFNRHLAEYLDRKVTANANPVDGVFSFDVLIDRRINLLSRVYRPAYADQEQPPSILDLEKPVDGDIVPVILFFHGGSFAHSSANSAIYDTLCRRLVGLCKCVVVSVNYRRAPENPYPCAYDDGWIALNWVNSRSWLKSKKDSKVHIFLAGDSSGGNIAHNVALRAGESGIDVLGNILLNPMFGGNERTESEKSLDGKYFVTVRDRDWYWKAFLPEGEDREHPACNPFSPRGKSLEGVSFPKSLVVVAGLDLIRDWQLAYAEGLKKAGQEVKLMHLEKATVGFYLLPNNNHFHNVMDEISAFVNAE | soluble
MRLRHLSDPDSLPALDKSFAIERPALGLAPDAPPVRILLLYGSLRARSFSRLAVEEAARLLQFFGAETRIFDPSDLPLPDQVQSDDHPAVKELRALSEWSEGQVWCSPERHGQITSVMKAQIDHLPLEMAGIRPTQGRTLAVMQVSGGSQSFNAVNTLRLLGRWMRMFTIPNQSSIAKAFQEFDAAGRMKPSPYYDRIADVMEELVRFTALVRPHREALTDRYSERKAAGHVIDEATDLSSIAIAPQPLPESETS | soluble
MSSRQGGKMKPLKQKKKQQQDLDPEDIAFKEKQKADAAAKKALMANMKSGKPLVGGGIKKSGKK | soluble
MSLMESWLIPAAPVTVVEEIKKSRFITMLAHTDGVEAAKAFVESVRAEHPDARHHCVAWVAGAPDDSQQLGFSDDGEPAGTAGKPMLAQLMGSGVGEITAVVVRYYGGILLGTGGLVKAYGGGVNQALRQLTTQRKTPLTEYTLQCEYHQLTGIEALLGQCDGKIINSDYQAFVLLRVALPAAKVAEFSAKLADFSRGSLQLLAIEEEGGSHHHHHH | soluble
VPKLVDHDERRRSITAAAWRLIAARGIEAANMRDIATEAGYTNGALSHYFAGKDEILRTSYEHISEATDRRIAEALGDATGLDALRILCREVMPINEEQLLEARIAASLWPRAMYDEQMAATNRRTMDNWREQMAIFLEQAREEGSVGDIDVTIVVEQLLNMMMGMQILGVLTPGETSSERQLEMLEQFVAAL | soluble
MSVEKIPGYTYGETENRAPFNLEDLKLLKEAVMFTAEDEEYIQKAGEVLEDQVEEILDTWYGFVGSHPHLLYYFTSPDGTPNEKYLAAVRKRFSRWILDTSNRSYDQAWLDYQYEIGLRHHRTKKNQTDNVESVPNIGYRYLVAFIYPITATMKPFLARKGHTPEEVEKMYQAWFKATTLQVALWSYPYVKYGDF | soluble
MKRVMFHAKIHRATVTQADLHYVGSVTVDQDLLDAAGILPFEQVDIYDITNGARLTTYALPGERGSGVIGINGAAAHLVKPGDLVILVAYGVFDEEEARNLKPTVVLVDERNRILEVRKG | soluble
MAHHHHHHMGAKILTKIQREKLVEWENCVSVIEAAILKHKYKQKVNKNIPSLLRVQAHIRKKMV | not soluble
MKLDKIDNKNRRIRKKLFLGEFAILGFEISCETDINDFDRYDAFVDDFIDYIDTLGLCFGGGGLELFEGFLCSTERYGSATEEQKAQVVAWLEARPEVKSAKAGDLLDANYL | soluble
MPLHVVLYQPEIPANTGNIARTCAATDTSLHLIRPLGFSTDDKMLKRAGLDYWPYVNISYYDSLDELFARFPEGEFYFITKFGRRYYDSFDFSDTEKHIFFVFGRETTGLPKELLEANMDRCLRIPMNDKVRSLNLSNTAAILVYEALRQQRFYGLS | not soluble
MGDKQFAVIGLGRFGLAVCKELQDSGSQVLAVDINEDRVKEAAGFVSQAIVANCTHEETVAELKLDDYDMVMIAIGADVNASILATLIAKEAGVKSVWVKANDRFQARVLQKIGADHIIMPERDMGIRVARKMLDKRVLEFHPLGSGLAMTEFVVGSRLMGKTLSDLALCKVEGVQVLGFKRGPEIIKAPDMSTTLEIGDLIIVVGPQDKLANKLKSLEHHHHHH | soluble
MSLNALYNSLKQRLESGEWLAGQRMPSIRKLASTSEASYHDAVTAYARLVSEGLLSASPGRGYFVNSGASQAVSPREPECMSADPLFRLLQAGPQYTKLGGGWLPPAWRDTELLAKAIRRTARLEQSSLAEYGDISGYLPMRKQLCVHMKRLTRIDIRPSQVLSTLGATQGLDLVARLLIKAGDHVFVDEPGNGNLIRLIQLAGGHVVGVRRTQDGPDIAEMESYLAKHTVKAFFCNSTFHNPTGSNISPHNAFKVLRLAVEHEFFVVEDDVYGDFSPTVRQTFAELDNLDRVIYIGSFSKCLSASLRVGYIACSQELIEPLTRLKLLTCVAVPAFCERFVNTILADGTYARHMQDVQQRLISQQVQTQRSLLARGWKFDIAPQGGMFIWAYHPDITDLQPFMTKLEQHRILLMPGSAFSVTRDYQRFARINCTHFSEAVEAHFSV | not soluble
SMSYESPFHLNDAVAIVTGAAAGIGRAIAGTFAKAGASVVVTDLKSEGAEAVAAAIRQAGGKAIGLECNVTDEQHREAVIKAALDQFGKITVLVNNAGGGGPKPFDMPMSDFEWAFKLNLFSLFRLSQLAAPHMQKAGGGAILNISSMAGENTNVRMASYGSSKAAVNHLTRNIAFDVGPMGIRVNAIAPGAIKTDALATVLTPEIERAMLKHTPLGRLGEAQDIANAALFLCSPAAAWISGQVLTVSGGGVQELD | soluble
GMQQSEHFSFGEQTEIEDIGGGLKRQMLGFNHELMAVKIWFDKGAEGYVHAHRHSQVSYVVEGEFHVNVDGVIKVLTAGDSFFVPPHVDHGAVCPTGGILIDTFSPAREDFVEGLS | soluble
NHVRRVQELSKFFAEEMGLDEDLVHKIYLYAPLHDIGKIKVPKEILNKKGKLTAEEWEIMKKHTIWGGELLSGRKELEVARNIALYHHESYDGTGYPFGLKDDEIPIEAQIVKIVDVYDAL | not soluble
MINLQDVSKVYKSKHGDVNAVQNVSLSIKKGEIFGIIGYSGAGKSSLIRLLNGLEKPTSGTVEVAGTKINEVNGRGLRKARHEISMIFQHFNLLWSRTVRDNIMFPLEIAGVKKSERIKRANELIKLVGLEGKEKSYPSQLSGGQKQRVGIARALANNPKVLLCDEATSALDPQTTDSILDLLSDINERLGLTIVLITHEMHVIRKICNRVAVMENGKVVEEGEVLDVFKNPKEQMTKRFVQQVTEPEETKETLQHLLDDTASGKMVQLTFVGESAEQPLITEMIRNFNVSVNILQGKISQTKDGAYGSLFIHIDGDEEEVQNVIRFINDKQVKAEVITNV | not soluble
MGSDKIHHHHHHMRKMAVQKLPEKDFFAPLKAWKFLVRKPVTIEVPNKIRREASERYRGFHVNDWGKCIGCGTCAKICPTDAITMVEVPDLTQEDGKLPQRPVIDYGRCSFCALCVDICTTGSLKMTREYIHISEDPEDFIFMPTDKGLNAKKGLYEFGKAPLGWVRDENSELLDLERIEMPVEPPEVRIKSFIEIVKGYSREQAMQEAARCVECGVCTYTCPEHMDIPQYIKSVYEDNLEEGLRWLYRTNPLSMVCGRVCTHRCETACSVGVRGEPVAIQWLKRYIVDSIPLERYGEILDIKPERKGKSVGIIGSGPAGLAAAYFLATMGYDVTIYESESKPGGVMRYGIPKYRLPDEALDKDIAFIEALGVKILLNTRVVQDVSFEDVRKRHDVVFLATGFGLGRSTGVPGTDHPDVKQALPLLKMIRDYLRGDGPKPPVPERLVVIGGGNVAMDISRSMARLQFMEYGRVNVQVLSLEGCFEDMPADMEEIEEALEEGIVINPGWGPMEVVIENDRIKGVKFKKCVSVFDGEGRFNPQFDEKEQIFVEADMVVEAIGQAPDYSYLPEEIRSKLEFFRGRIKTNEYNQTSVEWLFAGGDIVHGPDIIHGIADGYAAAKGIDMYLRKEK | not soluble
MIMLKEYSLKALQTAINQAMKLDEQMPQKLQKLDGKTLEMVITPLNVNFYIRFKGSEMQLLHRIDGRPDTIIHSNPIGLIRLSLLPTSKARSLFNDKIRISGDIELGQSVKKLFDEIDIDWEGHLAHFTGDVVAHQIGSFVRKGLEFKNQFSTSMQQNITEFLQEELRICPSRNELEDFFAEVDELVLSVDRLQAHINNLMSDDEGN | not soluble
MTKWKRANPNGTRDYLFEECTLIEEVEQKLRLTFLERGYEEIRTPTIEFYDVFAFQNRPIDEEKMYKFFDEKGRIIVLRPDMTIPLARVIGTQRWDTPLKVTYSGNVFRANESHSGKYNEIVQSGIEVIGIDNVRAEIECVISVIQALQKLKVQSFTIEIGQVQLYKCIVKKLSIQDEEERVLRTYIESKNYAALSNFIGEKKLDRCDETVRLLEKLPRLFGNLEVIEEAEKLASSNEMKMAIARVKEMYETIEMLGYGSYISIDLGMIQHLDYYTGVIFKGYIYEIGEEIVSGGRYDELIGNFGEMLPAVGLAVQVNQIVKALQEQQEPYERNQIDIVIHYELNRLAEAERLRNLLRKDGKNAWLSLFSNLSDTFQFARKNKIGTVVEAQNEYLVEYVWNEKWVVQKEGEASCVTFKLR | not soluble
GLVPRGSHMTGRMLTLDGNPAANWLNNARTKWSASRADVVLSYQQNNGGWPKNLDYNSVGNGGGGNESGTIDNGATITEMVFLAEVYKSGGNTKYRDAVRKAANFLVNSQYSTGALPQFYPLKGGYSDHATFNDNGMAYALTVLDFAANKRAPFDTDVFSDNDRTRFKTAVTKGTDYILKAQWKQNGVLTVWCAQHGALDYQPKKARAYELESLSGSESVGVLAFLMTQPQTAEIEQAVRAGVAWFNSPRTYLEGYTYDSSLAATNPIVPRAGSKMWYRFYDLNTNRGFFSDRDGSKFYDITQMSLERRTGYSWGGNYGTSIINFAQKVGYL | soluble
MGSDKIHHHHHHMDRKLLRLYQPLNAYSYNSDSLFLYDFSRPFIKNSGAILDIGSGCGILGLLCARDNPLAIVHLVEKDNKMAFCSQKNALKFPNAQVFEGDFLDFNPPILYDIIVCNPPFYALGSIKSKIKGHARHQSELDFASLVAKVKKCLKPKGYFIFCYEALSLCLVIEGLKSVKLTLETLRFVQSFKDKNAHLMLGAARNNSKSALKVLPPLITHHSKNQSDNTKEVLSIYQTCNTYSIKALLN | not soluble
RDILEVLQDIHMETGETVAIATKNDIYLQYIQIIESVHALRFHVDENAIRPLTMSSNGWMLMSTMNDKAIDNTVRRANTITQKDGIRFEVDDMMARIRQVREQGYASAEHIPFVGGGTICVLLPMTIQGQPVTMGLGGALDRIKQNYDRYLELLLNGVQQLKKSDSFHQPIELAH | not soluble

— the DeepSol protein solubility set
